{"source": "paper PMC13066552", "about": "(Nature Communications, 2026)", "proteins": {"B1": {"name": "Bpa 45-153 (domain or fragment)", "chain": "AKVMRIGTMIKQLLEEVRAAPLDEASRNRLRDIHATSIRELEDGLAPELREELDRLTLPFNEDAVPSDAELRIAQAQLVGWLEGLFHGIQTALFAQQMAARAQLQQMRQ"}}, "target": "the molecule itself", "assay": "methyl-TROSY NMR spectra compared", "data": [{"protein": "B1", "values": [{"measurement": "stoichiometry N", "result": 4, "unit": "subunits"}]}]}
